According to patent KR20180081029A (dated 2018):

Experiments:
[1] = molecular target: T1, CD86 expressed on the cell surface of Raji B cells (human, UniProt P42081 24-329); assay: FACS on Raji B cells (figure legend)
T1 construct: whole, on cells; Raji cells carry both CD80 and CD86; also called B7.2
T1 sequence (looked up): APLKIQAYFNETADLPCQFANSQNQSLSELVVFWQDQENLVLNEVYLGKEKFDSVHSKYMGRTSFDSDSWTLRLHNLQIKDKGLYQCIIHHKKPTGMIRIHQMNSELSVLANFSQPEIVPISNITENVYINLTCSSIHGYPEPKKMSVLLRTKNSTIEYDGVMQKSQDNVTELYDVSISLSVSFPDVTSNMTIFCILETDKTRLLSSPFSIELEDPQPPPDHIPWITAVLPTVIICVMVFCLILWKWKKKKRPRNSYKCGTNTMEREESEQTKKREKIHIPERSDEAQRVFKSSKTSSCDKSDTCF

[2] = molecular target: T2, CD86 antigen (R&D systems, Cat. #. 141-B2-100) (human, UniProt P42081 26-245); assay: phage bio-panning of a Fab library on the bought antigen, binding checked by Fab ELISA (anti-HA-HRP)
T2 construct: Bought reagent
T2 sequence (looked up): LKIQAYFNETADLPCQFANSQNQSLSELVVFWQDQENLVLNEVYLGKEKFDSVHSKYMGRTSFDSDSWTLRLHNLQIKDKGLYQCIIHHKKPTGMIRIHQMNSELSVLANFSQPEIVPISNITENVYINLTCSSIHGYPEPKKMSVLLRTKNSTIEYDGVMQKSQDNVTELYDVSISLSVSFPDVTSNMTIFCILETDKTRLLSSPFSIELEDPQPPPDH

B1: 3A2 (CD86) human antibody, IgG form (antibody, V domains shown)
VH: EVQLLESGGGLVQPGGSLRLSCAASGFTFSYYSMSWVRQAPGKGLEWVSSISYGPGYTYYADSVKGRFTISRDNSKNTLYLQMNSLRAEDTAVYYCARYYYYGYYYGYYGAFDYWGQGTLVTVSS
VL: EIVLTQSPGTLSLSPGERATLSCRASQSVSSSYLAWYQQKPGQAPRLLIYGASSRATGIPDRFSGSGSGTDFTLTISRLEPEDFAVYYCQQGYYSNSTFGQGTKVEIK
notes: Converted to IgG, expressed in 293F cells
binding result [1]: binds

B2: 3A2 (CD86), Fab clone selected from the Rz human antibody library (Fab, V domains shown)
VH: B1 VH
VL: B1 VL
notes: Fab (on phage in the panning, soluble from E. coli in the ELISA, detected with anti-HA-HRP, so it carries an HA tag)
binding result [2]: binds
